# Measurements reported in article PMC7251212.
# Target: recombinant TdfH (Neisseria gonorrhoeae TonB-dependent transporter, NGO0952) (Neisseria gonorrhoeae)
# Experiment: ITC; Nano ITC, 25°C, 1x PBS with 0.05% DDM; TdfH (300 μl, 20 μM) in the cell, CP sample (200 μM) in 20 injections of 2.5 μl; fitted with NanoAnalyze to a two-state (multisite) model, TKO to a single-site model
substance,measurement,value
mouse calprotectin (heterodimer of mouse S100A8 and S100A9) (from UniProt P27005 1-89; P31725 1-113) (complex),"KD, higher affinity (two-state model)",0.72 µM
same,"KD, lower affinity (two-state model)",51 µM
